The values below come from doi:10.1101/2024.05.28.596263.

Common to all, as to test: cryo-EM structure
Assay [1] deals with recombinant human CFTR (cystic fibrosis transmembrane conductance regulator), wild type, dephosphorylated (human) (UniProt P13569).
Assay [2] addresses dephosphorylated CFTR of the P-ATP + AMP-PNP sample (human) (UniProt P13569).
Assay [3] deals with fully-phosphorylated CFTR carrying the ATP-hydrolysis-disrupting E1371Q mutation (human) (UniProt P13569).

Turning to “protein kinase A catalytic subunit purified from bovine heart (from UniProt P00517 1-351) (enzyme)”, the figures for the stoichiometry N (PKA-C per CFTR) in assay [1], in assay [2] and in assay [3] were 2, 1 and 1, respectively.
